We go through 1 molecule from article PMC10897178, “FANCJ DNA helicase is recruited to the replisome by AND-1 to ensure genome stability” (EMBO Reports, 2024).

Residue numbers refer to the chain shown, from its start.

One assay concerns the target T1, Flag-tagged FANCJ D736H (human, UniProt Q9BX63 1-1249, D736H).
T1 construct: FANCJ (BRIP1), human, full-length; missense variant found in invasive breast carcinoma; source: HEK 293T, transiently transfected, purified (anti-Flag M2 agarose)
T1 sequence (looked up): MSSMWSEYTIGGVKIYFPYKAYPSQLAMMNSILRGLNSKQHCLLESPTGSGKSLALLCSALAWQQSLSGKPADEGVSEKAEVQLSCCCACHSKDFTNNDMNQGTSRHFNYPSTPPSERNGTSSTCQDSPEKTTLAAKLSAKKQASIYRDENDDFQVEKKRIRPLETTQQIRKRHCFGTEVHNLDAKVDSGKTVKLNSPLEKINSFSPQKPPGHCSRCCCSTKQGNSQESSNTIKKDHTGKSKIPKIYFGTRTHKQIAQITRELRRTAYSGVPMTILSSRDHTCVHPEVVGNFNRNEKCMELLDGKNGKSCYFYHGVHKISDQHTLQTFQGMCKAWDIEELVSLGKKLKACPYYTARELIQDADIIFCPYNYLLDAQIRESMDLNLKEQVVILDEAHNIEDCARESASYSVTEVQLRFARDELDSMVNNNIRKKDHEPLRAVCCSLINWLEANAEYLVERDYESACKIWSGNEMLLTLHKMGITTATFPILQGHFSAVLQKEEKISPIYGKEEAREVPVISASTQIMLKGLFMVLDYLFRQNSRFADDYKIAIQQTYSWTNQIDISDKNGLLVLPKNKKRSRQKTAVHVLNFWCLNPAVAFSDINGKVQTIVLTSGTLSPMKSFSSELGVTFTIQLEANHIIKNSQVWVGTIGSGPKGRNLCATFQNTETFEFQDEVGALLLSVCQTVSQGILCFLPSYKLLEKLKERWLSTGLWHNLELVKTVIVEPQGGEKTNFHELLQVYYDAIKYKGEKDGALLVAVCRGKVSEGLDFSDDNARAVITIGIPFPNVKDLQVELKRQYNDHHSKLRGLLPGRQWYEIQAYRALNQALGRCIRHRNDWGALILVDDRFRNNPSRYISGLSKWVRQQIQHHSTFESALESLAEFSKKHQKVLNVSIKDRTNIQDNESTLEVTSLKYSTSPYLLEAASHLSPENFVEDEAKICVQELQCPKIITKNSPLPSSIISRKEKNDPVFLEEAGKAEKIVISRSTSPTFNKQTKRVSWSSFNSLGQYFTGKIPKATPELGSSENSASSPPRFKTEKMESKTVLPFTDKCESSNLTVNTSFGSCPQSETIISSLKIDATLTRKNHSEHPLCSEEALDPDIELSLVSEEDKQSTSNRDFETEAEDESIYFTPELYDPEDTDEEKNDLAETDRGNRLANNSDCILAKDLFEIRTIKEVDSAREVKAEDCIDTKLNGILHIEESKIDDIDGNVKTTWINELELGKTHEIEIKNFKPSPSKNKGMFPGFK
Kind of assay: pull-down; GST-SepB α-helix bundle (0.5 µg) on Glutathione Sepharose 4B beads, purified Flag-FANCJ (0.5 µg) added; 25 mM Tris-HCl pH 7.5, 150 mM NaCl, 0.1% Triton X-100, 4 °C; washes with 300 mM NaCl, 1% Triton X-100; Western blot. The conditions noted are these: both partners purified. For orientation: In western blotting, separated proteins are transferred to a membrane and probed.

Assay [1] addresses T2, Flag-tagged FANCJ wild type (human, UniProt Q9BX63 1-1249).
T2 construct: FANCJ (BRIP1, BACH1) DNA helicase, human, open reading frame; purified as full-length protein; Plasmid from Hisao Masai (Uno et al, 2012); also called FANCJ WT; Flag-FANCJ WT; source: HEK 293T, transiently transfected (pCSII-EF-MCS): in whole-cell extract or nuclear fraction; also purified (anti-Flag M2 agarose, 3x Flag-peptide elution)
T2 sequence (looked up): T1 sequence (looked up) with H736D
Described as above. The note with it: both partners purified.

B1: GST-SepB α-helix bundle WT (domain or fragment, human, UniProt O75717 718-824, looked up)
chain: IATEKGQMEEQFWRSVIFHNHLDYLAKNGYEYEESTKNQATKEQQELLMKMLALSCKLEREFRCVELADLMTQNAVNLAIKYASRSRKLILAQKLSELAVEKAAELT
notes: AND-1 (WDHD1), human, α-helix bundle of the SepB domain, amino-acid residues 718-824; Cloned into pGEX-2T; also called GST-SepB α-helix bundle chimeric protein; source: E. coli Rosetta pLysS (DE3), purified (Glutathione Sepharose 4B)
Turning to B1, the binding result (in the assay with Flag-tagged FANCJ D736H; in assay [1]) was “binds” in each case.
